Experimental data: the supplement of paper PMC10126150
± gives the standard deviation of the averaged measurements.
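Note: ATP exposure 15 min at 22 °C before imaging.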

These sequences were tested on ATP (assay: switch fluorescence ratio, 500 uM ATP over buffer (Cy3 cluster intensity, sum of 5 cycles each) (fold (ratio)); higher = stronger signal-on switching upon ATP binding; sequences stand for … in TCGTCGGCAGCGTCAGATGTGTATAAGAGACAGTTTTTTTTTTTTTTTTTTTTTTTTT…TC). Conditions: aptamer strand: ATP DNA aptamer (quencher-CACCTGGGGGAGTATTGCGGAGGAAGG + anchor), 100 nM annealed; ATP concentration: 500 uM.
Procedure, shortened: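 Per cluster, summed Cy3 intensity from the target cycles was divided by that from the buffer cycles to give the fluorescence ratio, then averaged per switch-domain sequence. Clusters outside 100-1000 RFU were excluded. The Cy3-labelled switching-strand clusters, on a modified Illumina MiSeq flow-cell, were annealed to 100 nM quencher-labelled ATP aptamer and imaged in selection buffer, then after 15 min with 500 uM ATP at 22 °C, for five cycles with NaOH stripping and re-annealing between them.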
AAAAAAAAAA showed a switch fluorescence ratio of 1 ± 0.022. AAAAAAAAAT showed a switch fluorescence ratio of 1.04 ± 0.03. Work on AAAAAAAATT yielded a switch fluorescence ratio of 0.993 ± 0.044. For AAAAAACGGT, the switch fluorescence ratio was 1.02 ± 0.025. AAAAAAGGGG showed a switch fluorescence ratio of 1.87 ± 1.5. Work on AAAAAAGGTG yielded a switch fluorescence ratio of 1.16 ± 0.22. AAAAAATGTG gave a switch fluorescence ratio of 0.99 ± 0.031. For AAAAAATTGG, the switch fluorescence ratio was 0.989 ± 0.035. Work on AAAAACATGG yielded a switch fluorescence ratio of 1.012 ± 0.0096. Sequence AAAAAGAAAT has a switch fluorescence ratio of 1.04 ± 0.021. For AAAAAGCAGG, the switch fluorescence ratio was 1.13 ± 0.14. AAAAAGGAAT was tested, and the switch fluorescence ratio was 0.982 ± 0.011. With AAAAAGGGAG the switch fluorescence ratio was 1.01 ± 0.044. In the case of AAAAAGGGCA, the switch fluorescence ratio is reported as 0.995 ± 0.061. With AAAAAGGGT the switch fluorescence ratio was 0.987 ± 0.032. Sequence AAAAAGGGTT has a switch fluorescence ratio of 1 ± 0.025. For AAAAAGTGAG, the switch fluorescence ratio was 0.973 ± 0.042. AAAAATCCTG gave a switch fluorescence ratio of 0.98 ± 0.021. AAAAATCGT was tested, and the switch fluorescence ratio was 1.01 ± 0.014. Work on AAAAATGCCG yielded a switch fluorescence ratio of 0.99 ± 0.019. Sequence AAAAATGCGC has a switch fluorescence ratio of 1.03 ± 0.017. With AAAAATGGGC the switch fluorescence ratio was 1.035 ± 0.005. For AAAAATGTTC, the switch fluorescence ratio was 0.9814 ± 4.7e-05. AAAAATTGTG showed a switch fluorescence ratio of 1.01 ± 0.046. AAAAATTGTT was tested, and the switch fluorescence ratio was 0.986 ± 0.027. Work on AAAACAGTTC yielded a switch fluorescence ratio of 1.04 ± 0.048. AAAACAGTTT gave a switch fluorescence ratio of 0.987 ± 0.036. In the case of AAAACCCGA, the switch fluorescence ratio is reported as 1.01 ± 0.051. AAAACCGTCG was tested, and the switch fluorescence ratio was 1.1 ± 0.023. Sequence AAAACCTTGG has a switch fluorescence ratio of 1.05 ± 0.021. In the case of AAAACGCATG, the switch fluorescence ratio is reported as 1.05 ± 0.021. With AAAACGGCGT the switch fluorescence ratio was 0.959 ± 0.01. Work on AAAACGGGAA yielded a switch fluorescence ratio of 1.02 ± 0.018. With AAAACGTAAC the switch fluorescence ratio was 1.25 ± 0.1. In the case of AAAACGTTTA, the switch fluorescence ratio is reported as 1.01 ± 0.043. In the case of AAAACTAACG, the switch fluorescence ratio is reported as 1.1 ± 0.037. For AAAACTATTT, the switch fluorescence ratio was 0.9865 ± 0.0064. AAAACTGTCA was tested, and the switch fluorescence ratio was 1.009 ± 0.0086. AAAACTTTAT was tested, and the switch fluorescence ratio was 0.978 ± 0.013. Work on AAAAGAAACC yielded a switch fluorescence ratio of 1.13 ± 0.048. Sequence AAAAGAGATT has a switch fluorescence ratio of 0.995 ± 0.013. In the case of AAAAGCAGGA, the switch fluorescence ratio is reported as 1.05 ± 0.052. Sequence AAAAGCCCTT has a switch fluorescence ratio of 1.096 ± 0.0043. AAAAGCCGGT gave a switch fluorescence ratio of 1.02 ± 0.034. AAAAGCGGGT gave a switch fluorescence ratio of 0.997 ± 0.023. AAAAGCTTGC showed a switch fluorescence ratio of 1.13 ± 0.11. For AAAAGGAGGC, the switch fluorescence ratio was 1.01 ± 0.011. AAAAGGGAGA gave a switch fluorescence ratio of 1.01 ± 0.013. AAAAGGGAGG gave a switch fluorescence ratio of 1.03 ± 0.019. AAAAGGGGGA showed a switch fluorescence ratio of 1.02 ± 0.022. Sequence AAAAGTATTA has a switch fluorescence ratio of 1.01 ± 0.025. In the case of AAAAGTGACC, the switch fluorescence ratio is reported as 1.01 ± 0.045. AAAAGTGACT gave a switch fluorescence ratio of 0.982 ± 0.049. In the case of AAAAGTGCCA, the switch fluorescence ratio is reported as 0.999 ± 0.027. AAAAGTTGTT showed a switch fluorescence ratio of 1.04 ± 0.019. Work on AAAAGTTTGA yielded a switch fluorescence ratio of 0.9656 ± 0.008. AAAATAATTA was tested, and the switch fluorescence ratio was 0.981 ± 0.012. In the case of AAAATACGCT, the switch fluorescence ratio is reported as 1.16 ± 0.17. AAAATAGCCG showed a switch fluorescence ratio of 1.04 ± 0.054. In the case of AAAATAGGCC, the switch fluorescence ratio is reported as 1.02 ± 0.013. AAAATAGGCT was tested, and the switch fluorescence ratio was 0.993 ± 0.029. AAAATATGTG showed a switch fluorescence ratio of 1.02 ± 0.062. Sequence AAAATATTTT has a switch fluorescence ratio of 0.981 ± 0.027. AAAATCGCGT was tested, and the switch fluorescence ratio was 0.998 ± 0.057. Work on AAAATGAAGA yielded a switch fluorescence ratio of 0.993 ± 0.026. Work on AAAATGAAGT yielded a switch fluorescence ratio of 1.03 ± 0.048. AAAATGATAT was tested, and the switch fluorescence ratio was 0.99 ± 0.02. AAAATGCGAT showed a switch fluorescence ratio of 1.01 ± 0.045. In the case of AAAATGGAAG, the switch fluorescence ratio is reported as 0.9997 ± 0.0056. AAAATGGACA was tested, and the switch fluorescence ratio was 1.03 ± 0.019. AAAATGGAGG gave a switch fluorescence ratio of 1.005 ± 0.0049. In the case of AAAATGGGGA, the switch fluorescence ratio is reported as 1.02 ± 0.033. AAAATGGTGG gave a switch fluorescence ratio of 1.02 ± 0.013. AAAATGTCGA showed a switch fluorescence ratio of 1 ± 0.024. AAAATTCCGG showed a switch fluorescence ratio of 1.011 ± 0.0011. AAAATTGACT was tested, and the switch fluorescence ratio was 1.002 ± 0.003.
